{"source": "IntAct's records for PubMed 29039417", "parents": {"B1": {"name": "Protein PTHB1 (Homo sapiens), Q3SYG4 (parent)", "chain": "MSLFKARDWWSTILGDKEEFDQGCLCLANVDNSGNGQDKIIVGSFMGYLRIFSPHPAKTGDGAQAEDLLLEVDLRDPVLQVEVGKFVSGTEMLHLAVLHSRKLCVYSVSGTLGNVEHGNQCQMKLMYEHNLQRTACNMTYGSFGGVKGRDLICIQSMDGMLMVFEQESYAFGRFLPGFLLPGPLAYSSRTDSFLTVSSCQQVESYKYQVLAFATDADKRQETEQQKLGSGKRLVVDWTLNIGEQALDICIVSFNQSASSVFVLGERNFFCLKDNGQIRFMKKLDWSPSCFLPYCSVSEGTINTLIGNHNNMLHIYQDVTLKWATQLPHIPVAVRVGCLHDLKGVIVTLSDDGHLQCSYLGTDPSLFQAPNVQSRELNYDELDVEMKELQKIIKDVNKSQGVWPMTEREDDLNVSVVVSPNFDSVSQATDVEVGTDLVPSVTVKVTLQNRVILQKAKLSVYVQPPLELTCDQFTFEFMTPDLTRTVSFSVYLKRSYTPSELEGNAVVSYSRPTDRNPDGIPRVIQCKFRLPLKLICLPGQPSKTASHKITIDTNKSPVSLLSLFPGFASQSDDDQVNVMGFHFLGGARITVLASKTSQRYRIQSEQFEDLWLITNELILRLQEYFEKQGVKDFACSFSGSIPLQEYFELIDHHFELRINGEKLEELLSERAVQFRAIQRRLLARFKDKTPAPLQHLDTLLDGTYKQVIALADAVEENQGNLFQSFTRLKSATHLVILLIALWQKLSADQVAILEAAFLPLQEDTQELGWEETVDAAISHLLKTCLSKSSKEQALNLNSQLNIPKDTSQLKKHITLLCDRLSKGGRLCLSTDAAAPQTMVMPGGCTTIPESDLEERSVEQDSTELFTNHRHLTAETPRPEVSPLQGVSE", "partner": "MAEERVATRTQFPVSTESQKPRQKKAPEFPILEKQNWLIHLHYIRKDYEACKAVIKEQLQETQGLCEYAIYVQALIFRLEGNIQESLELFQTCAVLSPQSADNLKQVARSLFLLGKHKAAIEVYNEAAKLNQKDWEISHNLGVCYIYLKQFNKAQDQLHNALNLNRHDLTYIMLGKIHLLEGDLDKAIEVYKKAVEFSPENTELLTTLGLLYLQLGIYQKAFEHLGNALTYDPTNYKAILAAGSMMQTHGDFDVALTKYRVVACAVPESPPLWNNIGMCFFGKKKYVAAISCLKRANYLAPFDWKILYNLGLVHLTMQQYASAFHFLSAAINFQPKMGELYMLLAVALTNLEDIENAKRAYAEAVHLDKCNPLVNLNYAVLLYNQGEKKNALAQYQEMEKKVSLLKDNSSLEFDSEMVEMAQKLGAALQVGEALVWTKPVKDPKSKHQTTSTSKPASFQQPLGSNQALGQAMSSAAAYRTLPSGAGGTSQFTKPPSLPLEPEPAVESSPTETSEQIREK"}}, "data": [{"variants_of": "B1", "settings": "with bbs4_human BBS4, Q96RK4", "values": [{"variant": "I776K", "effect of a mutation on the interaction": "with no effect"}, {"variant": "S777A", "effect of a mutation on the interaction": "with no effect"}, {"variant": "S777E", "effect of a mutation on the interaction": "disrupting interaction strength"}, {"variant": "S777K", "effect of a mutation on the interaction": "with no effect"}, {"variant": "H778A", "effect of a mutation on the interaction": "with no effect"}, {"variant": "H778E", "effect of a mutation on the interaction": "with no effect"}, {"variant": "H778K", "effect of a mutation on the interaction": "with no effect"}, {"variant": "L779A", "effect of a mutation on the interaction": "with no effect"}, {"variant": "L779E", "effect of a mutation on the interaction": "with no effect"}, {"variant": "L779K", "effect of a mutation on the interaction": "with no effect"}, {"variant": "L780A", "effect of a mutation on the interaction": "with no effect"}, {"variant": "L780E", "effect of a mutation on the interaction": "with no effect"}, {"variant": "L780K", "effect of a mutation on the interaction": "with no effect"}, {"variant": "K781A", "effect of a mutation on the interaction": "with no effect"}, {"variant": "K781E", "effect of a mutation on the interaction": "with no effect"}, {"variant": "T782A", "effect of a mutation on the interaction": "with no effect"}, {"variant": "T782E", "effect of a mutation on the interaction": "with no effect"}, {"variant": "T782K", "effect of a mutation on the interaction": "with no effect"}, {"variant": "C783A", "effect of a mutation on the interaction": "with no effect"}, {"variant": "C783E", "effect of a mutation on the interaction": "with no effect"}, {"variant": "C783K", "effect of a mutation on the interaction": "with no effect"}, {"variant": "L784A", "effect of a mutation on the interaction": "with no effect"}, {"variant": "L784E", "effect of a mutation on the interaction": "with no effect"}, {"variant": "L784K", "effect of a mutation on the interaction": "with no effect"}, {"variant": "S785A", "effect of a mutation on the interaction": "with no effect"}, {"variant": "S785E", "effect of a mutation on the interaction": "with no effect"}, {"variant": "S785K", "effect of a mutation on the interaction": "disrupting interaction strength"}, {"variant": "K786A", "effect of a mutation on the interaction": "with no effect"}, {"variant": "K786E", "effect of a mutation on the interaction": "with no effect"}, {"variant": "S787A", "effect of a mutation on the interaction": "with no effect"}, {"variant": "S787E", "effect of a mutation on the interaction": "with no effect"}, {"variant": "S787K", "effect of a mutation on the interaction": "with no effect"}, {"variant": "S788A", "effect of a mutation on the interaction": "with no effect"}, {"variant": "S788E", "effect of a mutation on the interaction": "with no effect"}, {"variant": "S788K", "effect of a mutation on the interaction": "with no effect"}, {"variant": "K789A", "effect of a mutation on the interaction": "with no effect"}, {"variant": "K789E", "effect of a mutation on the interaction": "with no effect"}, {"variant": "E790A", "effect of a mutation on the interaction": "with no effect"}, {"variant": "E790K", "effect of a mutation on the interaction": "with no effect"}, {"variant": "Q791A", "effect of a mutation on the interaction": "with no effect"}, {"variant": "Q791E", "effect of a mutation on the interaction": "with no effect"}, {"variant": "Q791K", "effect of a mutation on the interaction": "with no effect"}, {"variant": "Q791L", "effect of a mutation on the interaction": "disrupting interaction strength"}, {"variant": "A792E", "effect of a mutation on the interaction": "with no effect"}, {"variant": "A792K", "effect of a mutation on the interaction": "with no effect"}, {"variant": "L793A", "effect of a mutation on the interaction": "with no effect"}, {"variant": "L793E", "effect of a mutation on the interaction": "with no effect"}, {"variant": "L793K", "effect of a mutation on the interaction": "with no effect"}, {"variant": "N794A", "effect of a mutation on the interaction": "with no effect"}, {"variant": "N794E", "effect of a mutation on the interaction": "with no effect"}, {"variant": "N794K", "effect of a mutation on the interaction": "with no effect"}, {"variant": "L795A", "effect of a mutation on the interaction": "with no effect"}, {"variant": "L795E", "effect of a mutation on the interaction": "with no effect"}, {"variant": "L795K", "effect of a mutation on the interaction": "with no effect"}, {"variant": "N796A", "effect of a mutation on the interaction": "with no effect"}, {"variant": "N796E", "effect of a mutation on the interaction": "with no effect"}, {"variant": "N796K", "effect of a mutation on the interaction": "with no effect"}, {"variant": "S797A", "effect of a mutation on the interaction": "with no effect"}, {"variant": "S797E", "effect of a mutation on the interaction": "with no effect"}, {"variant": "S797K", "effect of a mutation on the interaction": "with no effect"}, {"variant": "Q798A", "effect of a mutation on the interaction": "with no effect"}, {"variant": "Q798E", "effect of a mutation on the interaction": "with no effect"}, {"variant": "Q798K", "effect of a mutation on the interaction": "disrupting interaction strength"}, {"variant": "L799A", "effect of a mutation on the interaction": "with no effect"}, {"variant": "L799E", "effect of a mutation on the interaction": "with no effect"}, {"variant": "L799K", "effect of a mutation on the interaction": "with no effect"}, {"variant": "N800A", "effect of a mutation on the interaction": "with no effect"}, {"variant": "N800E", "effect of a mutation on the interaction": "with no effect"}, {"variant": "N800K", "effect of a mutation on the interaction": "with no effect"}, {"variant": "I801A", "effect of a mutation on the interaction": "disrupting interaction strength"}, {"variant": "I801E", "effect of a mutation on the interaction": "with no effect"}, {"variant": "I801K", "effect of a mutation on the interaction": "with no effect"}, {"variant": "P802A", "effect of a mutation on the interaction": "with no effect"}, {"variant": "P802E", "effect of a mutation on the interaction": "with no effect"}, {"variant": "P802K", "effect of a mutation on the interaction": "with no effect"}, {"variant": "P802T", "effect of a mutation on the interaction": "disrupting interaction strength"}, {"variant": "K803A", "effect of a mutation on the interaction": "with no effect"}, {"variant": "K803E", "effect of a mutation on the interaction": "with no effect"}, {"variant": "D804A", "effect of a mutation on the interaction": "with no effect"}, {"variant": "D804E", "effect of a mutation on the interaction": "with no effect"}, {"variant": "D804F", "effect of a mutation on the interaction": "disrupting interaction strength"}, {"variant": "D804K", "effect of a mutation on the interaction": "with no effect"}, {"variant": "T805A", "effect of a mutation on the interaction": "with no effect"}, {"variant": "T805E", "effect of a mutation on the interaction": "with no effect"}, {"variant": "T805K", "effect of a mutation on the interaction": "with no effect"}, {"variant": "S806A", "effect of a mutation on the interaction": "with no effect"}, {"variant": "S806E", "effect of a mutation on the interaction": "with no effect"}, {"variant": "S806K", "effect of a mutation on the interaction": "with no effect"}, {"variant": "Q807A", "effect of a mutation on the interaction": "with no effect"}, {"variant": "Q807E", "effect of a mutation on the interaction": "with no effect"}]}]}
